From patent publication EP2452948B1

Target: Hsp90α in MCF-7 cells (Thr90 phosphorylated, intracellular) (human)
Test: cell-based or functional assay

Thr90 phosphorylated Hsp90α level in MCF-7 cells on overexpression of human PP5 (of the control): 0.55
Thr90 phosphorylated Hsp90α level in MCF-7 cells on siRNA knock-down of human PP5 (of the control): 1.58
Substance: human PP5 in MCF-7 cells (overexpressed from pcDNA3.1/Myc-His(-), or the endogenous protein knocked down by siRNA) (enzyme)
